Key:
[1] = target: T1, von Willebrand factor (VWF) (Homo sapiens, UniProt P04275 P04275:764-2813); assay: filter; Bmax 70%; 2 mM CaCl2, 37 C; details: tags: factor VIII free, Haematologic Technologies Inc; label: 5'-32P
Protocol: (§1) Affinity constants (Kd values) were determined using double-filter nitrocellulose filter binding assays (Rusconi et al, Thromb. Haemost. $4:841-848 (2000)). All binding studies were performed in binding buffer F (20 mM HEPES, pH 7.4, 150 mM NaCl, 2 mM CaCl₂, and 0.01% BSA) at 37° C. Human purified VWF (factor VIII free) was purchased from Haematologic Technologies Inc. (Essex Junction, Vt.) and used in the double-filter nitrocellulose filter binding assay to determine the Kd of the aptamers. Briefly, RNA were end-labeled at the 5′ end with T4 polynucleotide kinase (New England Biolabs, Beverly, Mass.) and [γ³²P] ATP (Amersham Pharmacia Biotech, Piscataway, N.J.) (Fitzwater and Polisky, Methods Enzymol. 267:275-301 (1996)). End-labeled RNA was diluted in binding buffer F, heat denatured at 65° C. for 5 minutes, and subsequently equilibrated at 37° C. Direct binding was performed by incubating trace ³²P-RNA with varying concentrations of VWF protein in binding buffer F at 37° C. for 5 min. The fraction of the nucleic acid-protein complex which bound to the nitrocellulose membrane was quantified with a phosphorimager (Molecular Dynamics, Sunnyvale, Calif.). Non-specific binding of the radiolabeled nucleic acid was subtracted out of the binding such that only specific binding remained (Wong and Lohman, Proc. Natl. Acad. Sci. USA 90:5428-5432 (1993)).

[2] = target: T1, von Willebrand factor (VWF); assay: filter; Bmax 21%; 2 mM CaCl2, 37 C; details: tags: factor VIII free, Haematologic Technologies Inc; label: 5'-32P
Protocol: as §1

[3] = target: T1, von Willebrand factor (VWF); assay: filter; Bmax 20%; 2 mM CaCl2, 37 C; details: tags: factor VIII free, Haematologic Technologies Inc; label: 5'-32P
Protocol: as §1

[4] = target: T1, von Willebrand factor (VWF); assay: filter; Bmax 75%; 2 mM CaCl2, 37 C; details: Haematologic Technologies Inc, label: 5'-32P
Protocol: as §1

[5] = target: T1, von Willebrand factor (VWF); assay: filter; Bmax 44%; 2 mM CaCl2, 37 C; details: tags: factor VIII free, Haematologic Technologies Inc; label: 5'-32P
Protocol: as §1

[6] = target: T1, von Willebrand factor (VWF); assay: filter; Bmax 72%; 2 mM CaCl2, 37 C; details: Haematologic Technologies Inc, label: 5'-32P
Protocol: as §1

[7] = target: T1, von Willebrand factor (VWF); assay: filter; Bmax 64.8%; 2 mM CaCl2, 37 C; details: tags: factor VIII free, Haematologic Technologies Inc; label: 5'-32P
Protocol: as §1

[8] = target: T1, von Willebrand factor (VWF); assay: filter; NB (no binding); 2 mM CaCl2, 37 C; details: tags: factor VIII free, Haematologic Technologies Inc; label: 5'-32P
Protocol: as §1

[9] = target: T1, von Willebrand factor (VWF); assay: filter; Bmax 89%; 2 mM CaCl2, 37 C; details: tags: factor VIII free human purified VWF, Haematologic Technologies Inc; label: 5'-32P
Protocol: as §1

[10] = target: T1, von Willebrand factor (VWF); assay: filter; Bmax 90%; 2 mM CaCl2, 37 C; details: tags: factor VIII free human purified VWF, Haematologic Technologies Inc; label: 5'-32P
Protocol: as §1

[11] = tags: factor VIII free human purified VWF

ACGAACUGCCCUCGAUCGACGCACAGACGU (ssRNA, mAmCmGmAmAmCfUmGfCfCfCmUmCmGmAmUmCmGmAfCrGfCmAmCmAmGmAmCmGfU-idT) [T59 vrt17]
Kd [1]: 13 nM

CCGAACUGCCCUCAGCUAUUAUUAGCUGACGCACAGACGG (ssRNA, 2'-F C and U; 2'-OH A and G; 3' idT) [T30]
Kd [2]: 39.3 nM

ACGAACUGCCCUCGAUCGACGCACAGACGUUUUUU (ssRNA, mAmCmGmAmAmCmUmGfCfCfCmUmCmGmAmUmCmGmAfCmGfCmAmCmAmGmAmCmGfUmUmUmUmUmU-idT) [T79 vrt3]
Kd [3]: 66 nM

ACGAACUGCCCUCGAUCGACGCACAGACGUUUUUU (ssRNA, mAmCmGmAmAmCmUmGfCfCfCmUmCmGmAmUmCmGmAfCrGfCmAmCmAmGmAmCmGmUmUmUmUmUmU-idT) [T79 vrt4]
Kd ([4]; tags: factor VIII free): 13 nM

ACGAACUGCCCUCGAUCGACGCACAGACGU (ssRNA, mAmCmGmAmAmCmUmGfCfCfCmUmCmGmAmUmCmGmAfCfGfCmAmCmAmGmAmCmGfUidT) [DTRI-007]
Kd [5]: 16 nM

ACGAACUGCCCUCGUAAGACGCACAGACGU (ssRNA, mAmCmGmAmAmCmUmGfCfCfCmUmCmGmUmAmAmGmAfCrGfCmAmCmAmGmAmCmGfUidT) [DTRI-011]
Kd ([6]; tags: factor VIII free): 3.8 nM

ACGAACUGCCCUCGUAAGACGCACAGACGUUUUUU (ssRNA, mAmCmGmAmAmCmUmGfCfCfCmUmCmGmUmAmAmGmAfCrGfCmAmCmAmGmAmCmGmUmUmUmUmUmUidT) [DTRI-019]
Kd [7]: 4.3 nM

B1: T12 (ssRNA)
RNA: GGGAGGAACUGCCCUCAGCUACUUUCAUGUUGCUGACGCACAGACGACUCGCUG
modifications: 2'-F C and U; 2'-OH A and G
binding result [8]: no binding

B2: T84 vrt1 (ssRNA)
RNA: ACGAACUGCCCUCGAUCGACGCACAGACGUACACG
modifications: 2'-F C2,U7,C9,C10,C11,U12,C20,C22,C28,U30; ribo A1,G3,G8,A19,G21,A23,G29; rest 2'-OMe; 3' idT
Kd [6, 11]: 1.7 nM

ACGAACUGCCCUCGUAUUAUUUCGACGCACAGACGU (ssRNA, 2'-F C9,C10,C11,C26,G27,C28; rest 2'-OMe; 3' idT) [T89 vrt7]
Kd [4, 11]: 38.5 nM

B3: T93 vrt1 (ssRNA)
RNA: ACGAACUGCCCUCUAUUUCAUUUGACGCACAGACGU
modifications: 2'-F C2,U7,C9,C10,C11,U12,C26,C28,C34,U36; ribo A1,G3,G8,A25,G27,A29,G35; rest 2'-OMe; 3' idT
Kd [9]: 0.8 nM

B4: T94 vrt1 (ssRNA)
RNA: ACGAACUGCCCUCUUUUUUGACGCACAGACGU
modifications: 2'-F C2,U7,C9,C10,C11,U12,C22,C24,C30,U32; ribo A1,G3,G8,A21,G23,A25,G31; rest 2'-OMe; 3' idT
Kd [10]: 0.9 nM

ACGAACUGCCCUCGAUCGACGCACAGACGU (ssRNA, 2'-F C9,C10,C11,C20,C22; ribo G21; rest 2'-OMe; 3' idT) [T59 vrt26]
Kd [9]: 18 nM

B5: T95 vrt1 (ssRNA)
RNA: ACGAACUGCCCUCUUUUUUUUGACGCACAGACGU
modifications: 2'-F C2,U7,C9,C10,C11,U12,C24,C26,C32,U34; ribo A1,G3,G8,A23,G25,A27,G33; rest 2'-OMe; 3' idT
Kd [10]: 0.9 nM

— US20190218553, “VON WILLEBRAND FACTOR (VWF)-TARGETING AGENTS AND METHODS OF USING THE SAME” (DUKE UNIVERSITY, published 2019)
